assay: soluble on expression in E. coli; label from the status in PepcDB or PDB records

Q: For “TVVNDPSCESVVTTPQHSLRDANSPAGLLSIAEETLAEFLSKATGTAVDWVQMPGMKPGPDSVGIFAISQRCNGVAARACGLVSLEPMKIAEILKDRPSWFRDCRSLEVFTMFPAGNGGTIELVYMQTYAPTTLAPARDFWTLRYTTSLDNGSFVVCERSLSGSGAGPNAASASQFVRAEMLSSGYLIRPCDGGGSIIHIVDHLNLEAWSVPDVLRPLYESSKVVAQKMTISALRYIRQLAQESNGEVVYGLGRQPAVLRTFSQRLSRGFNDAVNGFGDDGWSTMHCDGAEDIIVAINSTKHLTNISNSV”, which “soluble on expression in E. coli” value is on record?
A: soluble

Q: Which “soluble on expression in E. coli” value does the source give for “MGSDKIHHHHHHMRKPKITVIGGGTGSPVILKSLREKDVEIAAIVTVADDGGSSGELRKNMQQLTPPGDLRNVLVAMSDMPKFYEKVFQYRFSEDAGAFAGHPLGNLIIAGLSEMQGSTYNAMQLLSKFFHTTGKIYPSSDHPLTLHAVFQDGTEVAGESHIVDHRGIIDNVYVTNALNDDTPLASRRVVQTILESDMIVLGPGSLFTSILPNIVIKEIGRALLETKAEIAYVCNIMTQRGETEHFTDSDHVEVLHRHLGRPFIDTVLVNIEKVPQEYMNSNRFDEYLVQVEHDFVGLCKQVSRVISSNFLRLENGGAFHDGDLIVDELMRIIQVKK” here?
A: not soluble

Q: Which “soluble on expression in E. coli” value does the source give for “MVNGSLGSRETETSAVKMGKDNKEHKESKESKTVDNYEARMPAVLPFAKPLASKKLNKKVLKTVKKASKAKNVKRGVKEVVKALRKGEKGLVVIAGDISPADVISHIPVLCEDHSVPYIFIPSKQDLGAAGATKRPTSVVFIVPGSNKKKDGKNKEEEYKESFNEVVKEVQAL” here?
A: soluble

Q: Which “soluble on expression in E. coli” value does the source give for “EQLPVLQTVPFAGSAEPVSLTRESVERSVGEANMQEQRKRVHAMLRDYELQLRINSDASQQDAHLTPDSE” here?
A: not soluble

Q: Which “soluble on expression in E. coli” value does the source give for “MAHHHHHHMLRQCERLIVQLSQQVLEQEKDIHSLRAALHSSQNRRRRHRQRGGDEKRERAAAVSMAESFSVSTERRQHHHTHHITVKAPTQMTMTHEDSRLRLTLPSSMTPQVSPIHLSGDAGVDSATGPYPEAAVVAPHSPQSSGAGSAVPSPTRSVGKSSGEHGMAAALAFPSIVCDVSSFSDKTNVGLTPSAACDHPPSGESATADGLWASSLLSEPERSSSSSSLARHRRNTAQLTRNAQFETPRVNLDNQDAMSYLLCIFSSAKSTREADGGATAAMAEAGEAAPCGREHRGGAGVRSPNAPLQQQGEHVARRLFHLDPVDENEGSESGNEHSSGGAVSDYDRPAARRPFLPPLRDKRGDGDGSAPPNHKTCGAFDEDDAFLQERYARIVACALAAEFAASTTLVEEDEVEQQRGCKTGPRAPTAAWCRTTSRRDHSASATVSELLRLFTFQPATRHQPYSDGKGL” here?
A: not soluble

Q: For “AIANVWLLGRGELRRRHDDVLQLERAFLTDRTGLHFVNARSSEDLLALAESRRAEQQWPVLDAEWISPVGTDTCDDLVWQNLESTLDGRPDTFYSTAGFEAGNTLSGTGELAPGEAFLAYRFWRPVRVYAVQLRAFQADFHPGRPVYPFQVARVGVGCSLQAGMSLSYGADASAPGTSCNYRCFCTTEQQTLVFDDPMVGVYLVICLKGFPQQQLTDRLHYAAVSGIRVFGEPISSPALENELSCLISRGFILDGRDAARWLDLRSAQEHAAPMHIPEDEVI”, which “soluble on expression in E. coli” value is on record?
A: soluble

Q: For “MDISVIDATKVNTETGLHIGESNAPVKMIEFINVRCPYCRKWFEESEELLAQSVKSGKVERIIKLFDKEKESLQRGNVMHHYIDYSAPEQALSALHKMFATQDEWGNLTLEEVATYAEKNLGLKEQKDATLVSAVIAEANAAHIQFVPTIIIGEYIFDESVTEEELRGYIEK”, which “soluble on expression in E. coli” value is on record?
A: soluble

Q: For “MSPEQSPFHAGELAIQERAGVREQVAGFGSRAIRTFMPDQHREFFALLSLLLVGSLDADGYPSASVLWGPPGFARSPEPTRLRIDNLPQADDPLAANLEAGTRLGILGLEWPTRRRNRMNGRVLARDGKGFTVGVEQSFGNCPKYIQARSHQPVSRIASPALQGEGLDPRWLSLVSCSDTLFIASQHADPLRGGVDVSHRGGPPGFLRLGADGRLWLPDYAGNRLFNTLGNLLQDPRCGLLFIDFDNGDLLHLHAEAELFWPGSQPSIPWPAGAERLLALRPAGWRWRRGRLPLAFGEPQPSPFLPAGES”, which “soluble on expression in E. coli” value is on record?
A: not soluble

Q: With “ALGVDKPREIAFEVLDRVRTGEAYANLVLPRLLSKHNLSGRDAAFATEITYGTLRNVGLLDEVIKAASGRELSDIDPEVLDVLRLGAYQVMFTRVEDHAAVDTSVKMVGGLKKFQATGFANAILRNITRKEPEQWLKELEPAEELARVAFRTAHPRWIA” as the sequence, how does the “soluble on expression in E. coli” value read?
A: not soluble

Q: For “QYCWQHRFPTGYFSICDRYMNGTCPEGNSCKFAHGNAELHEWEERRDALKMKLNKA”, which “soluble on expression in E. coli” value is on record?
A: soluble

Q: For “GGVIATQMTYKVYMSGTVNGHYFEVEGDGKGRPYEGEQTVKLTVTKGGPLPFAWDILSPQCQYGSIPFTKYPEDIPDYVKQSFPEGFTWERIMNFEDGAVCTVSNDSSIQGNCFTYHVKFSGLNFPPNGPVMQKKTQGWEPSSERLFARGGMLIGNNFMALKLEGGGHYLCEFKTTYKAKKPVKMPGYHYVDRKLDVTNHNKDYTSVEQCEISIARKPVVA”, which “soluble on expression in E. coli” value is on record?
A: soluble

Q: Which “soluble on expression in E. coli” value does the source give for “MNSQNPDDHEDTTVVGFEVPVSPVSSYNNVYSSTEDETRDPPAVPPHLQHSLLGNQGSMELAYAPQNVVLNHLYIENRDAPRSVVALGFSHRFRTKFVTVVIYKPVQRRGSANV” here?
A: not soluble

Q: Which “soluble on expression in E. coli” value does the source give for “MSLIITDDHMHLYNHLKLKALEQFRDAGGTHVFLVNLLCHHYGIRPTSGKDFREVFERHLSLVEKANKIVKAYAVLGVHPAEITVIGDRIGHEKAAEMMKEALEIAGKYVEEGKAVALKSGRPHYPVSRHVWQLSNDVLRHAFEVAKDVGCAIQLHTESYTKEGMLEIAKMADEVGLKREKVVKHFSPPLIKEFEEIGIFPSVLAGNNNVLKAAEQGNRFTVETDYIDDRKRPGAVLGPKTVPRKVKELIELGYEDIAYKICVENVEKVYGVELEEEGHHHHHH” here?
A: soluble

Q: With “MEVEKYDLTLDFDIQKRTFNGTETITADAGDIVLDAVGLQINWMKVNGRDTAFTYDGQTVRAPGDSQPQKIEISFAGKVSDSLSGIYYAGRENGMITTHFEATDARRMFPCVDHPAYKAVFAITVVIDKDYDAISNMPPKRIEVSERKVVEFQDTPRMSTYLLYVGIGKFRYEYEKYRDIDLILASLKDIRSKYPLDMARKSVEFYENYFGIPYALPKMHLISVPEFGAGAMENWGAITFREIYMDIAENSAVTVKRNSANVIAHEIAHQWFGDLVTMKWWNDLWLNESFATFMSYKTMDTLFPEWSFWGDFFVSRTSGALRSDSLKNTHPIEVDVRDPDEISQIFDEISYGKGASILRMIEDYAGYEEFRKGISKYLNDHKFGNAEGSDLWTAIEDVSGKPVKRVMEYWIKNPGYPVIKLKRNGRKITMYQTRFLLNGEEEGRWPVPVNIKKKDGVERILLEDEASIEADGLIKINADSAGFYRVLYDDATFSDVMGHYRDLSPLDRIGLVDDLFAFLLSGHIDPETYRQRIRNFFDDEDHNVITAIVGQMEYLRMLTHAFDDDARAFCRSRMQFLTGKQDENLKIALGRVSRLYVMVDESYAEEMSKLFKDFDSAEPEMRSSIATAYALVTGDLKGLLEKFRSVDRDEDRVRIISAFGKLKSNTDLSTVYGMVEKTEIKKQDMISFFSSALETLPGREFIFANLDRIIRLVIRYFTGNRTASRTVEMMIPVIGLDHPDAEDIVRNIGSKNISMGLAKGIEMLAVNRKLVERIRQTAVK” as the sequence, how does the “soluble on expression in E. coli” value read?
A: soluble

Q: With “KAPLRDMRFVLNEVFEVSRLWAQLPALAEVVDAETAAAILEEAGKVTAGTIAPLNRPGDEEGCQWNAGAVSTPAGFPEAYRTYAEGGWVGVGGDPAYGGMGMPKVISAQVEELVNSANLSFGLYPMLTAGACLALNAHASDELKDKYLPNMYAGIWAGSMCLTEPHAGTDLGIIRTRAEPQADGSYKISGTKIFITGGEHDLTENIIHLVLAKLPDAPAGPKGISLFLVPKVLVNADGSLGEKNSLGCGSIEHKMGIKASATCVMNFDGATGWLVGEVNKGLAAMFTMMNYERLGVGIQGLATGERSYQSAIEYARERIQSRAPTGPVAKDKAADPIIVHPDVRRMLLTMKALNEGGRAFSSYVAMQLDTAKYSEDAVTRKRAEELVALLTPVAKAFLTDMGLETTIHGQQIFGGHGFIREWGQEQLVRDCRITQIYEGTNGIQALDLVGRKVIGSGGAFSRHFTDEIKAFVASADEALGEFSKPLAAAVENLEELTAWLLDRAKGNPNEIGAASVEYLHVFGYTAYAYMWALMARTALAKQGEDDFYASKLGTARFYFARLLPRIHSLSASVRAGS” as the sequence, how does the “soluble on expression in E. coli” value read?
A: not soluble

— the DeepSol protein solubility set
